Broadly, the Km is the concentration of substrate that gives half-maximal velocity. A word on the kcat: it is the number of substrate molecules converted per active site and unit of time at saturation. In general, kcat/Km refers to the turnover number divided by the Michaelis constant.

Km, kcat and kcat/Km data for one substance are collected here from publication PMC6628648, “Enabling microbial syringol conversion through structure-guided protein engineering” (Proceedings of the National Academy of Sciences of the …, 2019).

For data set [1], the system named is COc1cccc(OC)c1O. Description: purified protein, by the assay type. The following applies: pH 7.5; 25.0 °C.
Data set [2] has as its system COc1ccccc1O. Description: purified protein, by the assay type. The conditions noted are these: pH 7.5; 25.0 °C.

For “GcoA-F169A (Amycolatopsis sp. ATCC 39116; F169A)”, in data set [1], the Km is 10 ± 1 µM, the kcat was found to be 5.9 ± 0.01 s⁻¹ and the kcat/Km was 600000 ± 90000 M⁻¹ s⁻¹. In data set [2], the Km amounted to 40 ± 6 µM, the kcat came to 11 ± 0.03 s⁻¹ and the kcat/Km is 290000 ± 40000 M⁻¹ s⁻¹.
